Laboratory results taken from PMC11633176.
Like-named read-outs stand apart in the source and are kept apart here.

What was measured:
Test in all cases: ITC; aliquots of HasBCTD variants (80-200 μM) injected into the cell containing HasR wild type or mutant proteins (4-15 μM); 25°C; 20 mM sodium phosphate, pH 7, 0.08% Zwittergent 3-14; fit to a model with one set of sites
[1] = molecular target: HasR_(ΔNterL1) (HasR_(ΔNter) with loop L1 P232GKE replaced by ATSA) (Serratia marcescens) (UniProt Q79AD2)
[2] = molecular target: HasR_(ΔNter) (HasR without the signaling domain, linker and TonB-box) (Serratia marcescens) (UniProt Q79AD2)
[3] = molecular target: HasR wild type (outer membrane heme transporter, TonB-dependent transporter) (Serratia marcescens)
[4] = molecular target: HasR_(ΔNterL10short) (HasR_(ΔNter) with loop L10 R774AFDRKLD replaced by ATSA) (Serratia marcescens) (UniProt Q79AD2)
[5] = molecular target: HasR_(ΔNterL1) (HasR_(ΔNter) with loop L1 P232GKE replaced by ATSA) (Serratia marcescens) (UniProt Q79AD2); remark: listed apart in the source
[6] = molecular target: HasR_(ΔNter) (HasR without the signaling domain, linker and TonB-box) (Serratia marcescens) (UniProt Q79AD2); remark: listed apart in the source

**Q.** For “HasBCTD (periplasmic C-terminal domain of the TonB-like protein HasB), wild type (domain or fragment)”, which dH [1] is on record?
**A.** 9.2 kcal/mol

**Q.** And the dH [2]?
**A.** 11.1 kcal/mol

**Q.** What about the Ka [3] of the same substance?
**A.** 7.5e+07 M⁻¹

**Q.** What about the dH [3] of the same substance?
**A.** -19.1 kcal/mol

**Q.** What about the stoichiometry N [3] of the same substance?
**A.** 1.03

**Q.** And the Ka [4]?
**A.** 1.45e+08 M⁻¹

**Q.** What about the dH [4] of the same substance?
**A.** -2.9 kcal/mol

**Q.** What about the stoichiometry N [4] of the same substance?
**A.** 0.98

**Q.** What about the Ka [5] of the same substance?
**A.** 3.03e+06 M⁻¹

**Q.** And the dH [5]?
**A.** -9.2 kcal/mol

**Q.** What about the stoichiometry N [5] of the same substance?
**A.** 1.1

**Q.** What about the Ka [6] of the same substance?
**A.** 2.3e+06 M⁻¹

**Q.** What about the dH [6] of the same substance?
**A.** -11.1 kcal/mol

**Q.** And the stoichiometry N [6]?
**A.** 1.1
